Assay results reported in patent US20250092134A1.

What was measured:
[1] = biological target: HuTCR Vb17 × Va10.2 (SKW3_1) (human); assay: flow cytometry on SKW3-1 cells
[2] = biological target: TCR Vβ17 on T cells of PBMCs; assay: cell-based or functional assay
[3] = biological target: HuTCR Vb17 × Va12 (SKW3-2) (human); assay: flow cytometry on SKW3-2 cells
[4] = biological target: HuTCR Vb7/9 × Va10.2 (SKW3-3) (human); assay: flow cytometry on SKW3-3 cells (no Vβ17)
[5] = biological target: TCR Vβ17 on T cells of PBMCs; assay: flow cytometry on PBMCs, percent of cells stained
[6] = biological target: Vβ17 (on cells expressing Vβ17); assay: cell-based or functional assay
Chain of Vβ17 (on cells expressing Vβ17) (A0A075B6N1 22-114): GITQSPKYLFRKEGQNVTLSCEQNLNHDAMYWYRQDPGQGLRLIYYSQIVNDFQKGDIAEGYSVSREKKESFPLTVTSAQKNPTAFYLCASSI

Chain of TCR Vβ17 on T cells of PBMCs (A0A075B6N1 22-114): as above
Chain of HuTCR Vb17 × Va10.2 (SKW3_1) (human) (A0A075B6N1 22-114, chain 1 of 2): as the sequence (A0A075B6N1 22-114) above
Chain of HuTCR Vb17 × Va10.2 (SKW3_1) (human) (A0A087WT01 20-109, chain 2 of 2, further chain): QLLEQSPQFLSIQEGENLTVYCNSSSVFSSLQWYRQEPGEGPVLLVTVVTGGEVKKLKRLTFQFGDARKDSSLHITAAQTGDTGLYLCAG
Chain of HuTCR Vb17 × Va12 (SKW3-2) (human) (A0A075B6N1 22-114): as the sequence (A0A075B6N1 22-114) above

MFI [1] [MFI]	Proliferation (EC50, ug/ml) [2] [µg/mL]	MFI [3] [MFI]	MFI [4] [MFI]	PBMC binding (%) [5] [%]	Cell Internalization (EC50) [6] [nM]	Binder
55200	0.9	56900	438	3.27		28C9A5 (antibody, IgG2b, V domains shown) VH: EVQLQESGAELVRPGTSVKMSCKASGYTFTHYWIDWTKQRPGHGLEWIGNIYPGGGYTNYNENFKGKATLTADKSSSTVFMQFSSLTSDDSAIYYCTRKGYYYGSDWYFDVWGTGTTVTVSS VL: QIVLSQSPAIMSASPGEKVTMTCSASSSVSYMHWYQQKSGTSPKRWIYDTSKLASGVPARFSGSGSGTSYSLTISSMEAEDAATYYCQQWSSNPYTFGGGTKLEIK
48700	> 5	38900	532	2.96		21G11A8 (antibody, V domains shown) VH: EVQLQESGPDLKKPGETVKISCKASGYTFTTYGMNWVKQAPGKGLKWMGYLNTYSGVSTYADDFKGRFAFSLETSANTAYLQINNLRNDDTATYFCARWGNYGAMDYWGQGTSVTVSS VL: DIKMTQSPLSLPVSLGDQASISCRSSQSIVRSNGFTYLEWYLQKPGQSPELLIYKVSNRFSGVPDRFSGSGSGTDFTLKISRVEAEDLGVYYCFQSSHVPRTFGGGTKLEIK
38000	0.3	53800	441	3.27		28D2E6 (antibody, IgG1, V domains shown) VH: EVQLQESGPGLVKPSQSLSLTCSVTGYFISSGYYWKWIRQFPGNKLEWMGYISYDGSNNYNPSLKNRISITRDTSKNQFFLKLNSVTAEDTATYYCARGGGYVPVWGTGTTVTVSS VL: DIQMTQSPLSLPVSLGDQASISCRSSQSIVRSNGNTYLEWYLQKPGQSPKLLIYKVSNRFSGVPDRFSGSGSGTDFTLKISRVEAEDLGVYYCFQSSHVPRTFGGGTKLEIK
47500	2	56300	427	3.06		21G11D5 (antibody, V domains shown) VH: EVQLQESGPDLKKPGETVKISCKASGYTFTTYGMNWVKQAPGKGLKWMGYLNTYSGVSTYADDFKGRFAFSLETSANTAYLQINNLRNDDTATYFCARWGNYGAMDYWGQGTSVTVSS VL: DIVMTQSPLSLPVSLGDQASISCRSSQSIVRSNGFTYLEWYLQKPGQSPELLIYKVSNRFSGVPDRFSGSGSGTDFTLKISRVEAEDLGVYYCFQSSHVPRTFGGGTKLEIK
43600		50000	452	3.3		28D2E8 (antibody, IgG1, V domains shown) VH: EVQLQESGPGLVKPSQSLSLTCSVTGYFISSGYYWKWIRQFPGNKLEWMGYISYDGSNNYNPSLKNRISITRDTSKNQFFLKLNSVTAEDTATYYCARGGGYVPVWGTGTTVTVSS VL: DIKMTQSPLSLPVSLGDQASISCRSSQSIVRSNGNTYLEWYLQKPGQSPKLLIYKVSNRFSGVPDRFSGSGSGTDFTLKISRVEAEDLGVYYCFQSSHVPRTFGGGTKLEIK
39500	> 5	43100	448	2.7		20A9A9 (antibody, V domains shown) VH: EVQLQESGPGLVQPSQSLSITCTVSGFSLTSYGVHWVRQSPGKGLEWLGIIWSAGGTDYNAAFISRLSISKDNSKSQIFFKLNSLHADDTAIYFCARGSFYDYGRLDYWGQGTTLTVSS VL: DIVMTQSHRFMSTSVGDRVSITCKASQDVSTAVAWYQQKPGQSPKLLIYSSSYRYTGVPDRFTGSGSGTDFTFTISSVQAEDLAVYYCQQHYGTPYTFGGGTKLEIQ
10100		6600	507	2.74		23A9B10 (antibody, V domains shown) VH: EVQLQESGPGLVKPSQSLSLTCSVTGYSITSGYYWNWIRQFLGNKLEWMGYITYDGSNNYNPSLKDRISITRDTSKNQFFLNLNSVTTDDTATYYCARGGGYVPVWGTGTTVTVSS VL: IQMTQSPAFLSVSPGERVSFSCRASQNIGTSIHWYQQRTNGSPRLLIKYASESISGIPSRFSGSGSGTDFTLSINSVESEDFADYYCHQSHNWPTTFGAGTKLELK
8600		3400	466	2.32		23A9F7 (antibody, V domains shown) VH: EVQLQESGPGLVKPSQSLSLTCSVTGYSITSGYYWNWIRQFLGNKLEWMGYITYDGSNNYNPSLKDRISITRDTSKNQFFLNLNSVTTDDTATYYCARGGGYVPVWGTGTTVTVSS VL: DVQMTQSPAFLSVSPGERVSFSCRASQNIGTSIHWYQQRTNGSPRLLIKYASESISGIPSRFSGSGSGTDFTLSINSVESEDFADYYCHQSHNWPTTFGAGTKLELK
7660		3210	458	3.2		23A9C10 (antibody, V domains shown) VH: EVQLQESGPGLVKPSQSLSLTCSVTGYSITSGYYWNWIRQFLGNKLEWMGYITYDGSNNYNPSLKDRISITRDTSKNQFFLNLNSVTTDDTATYYCARGGGYVPVWGTGTTVTVSS VL: DIQMTQSPAFLSVSPGERVSFSCRASQNIGTSIHWYQQRTNGSPRLLIKYASESISGIPSRFSGSGSGTDFTLSINSVESEDFADYYCHQSHNWPTTFGAGTKLELK
77400		36500	434	3.13	< 0.07	28B2A2 (antibody, IgG2a, V domains shown) VH: EVQLQESGPELVKPGASVKMSCKASGYTFTDDNMHWVKQSHGKSLEWIGYINPNNNHTNYNQKFKGKATLTVNKSSSTAYMELRSLTSEDSAVYFCARSTVVPFYAMDYWGQGTSVTVSS VL: DIVMTQSPASLSMAIGEKVTIRCITITDIDDDMNWYQQKPGEPPKLLFSEGNTLRPGVPSRFSSSGYGSDFAFTIENMLSEDVADYYCLQSDNLPLTFGAGTKLELK
45700	> 5	53800	472	2.97	< 0.07	28B2A4 (antibody, IgG2a, V domains shown) VH: EVQLQESGPELVKPGASVKMSCKASGYTFTDDNMHWVKQSHGKSLEWIGYINPNNNHTNYNQKFKGKATLTVNKSSSTAYMELRSLTSEDSAVYFCARSTVVPFYAMDYWGQGTSVTVSS VL: DIQMTQSPASLSMAIGEKVTIRCITITDIDDDMNWYQQKPGEPPKLLFSEGNTLRPGVPSRFSSSGYGSDFAFTIENMLSEDVADYYCLQSDNLPLTFGGGTKLEIK
81800	0.7	36600	438	3.2	< 0.07	28B2F5 (antibody, IgG2a, V domains shown) VH: EVQLQESGPELVKPGASVKMSCKASGYTFTDDNMHWVKQSHGKSLEWIGYINPNNNHTNYNQKFKGKATLTVNKSSSTAYMELRSLTSEDSAVYFCARSTVVPFYAMDYWGQGTSVTVSS VL: DIKMTQSPASLSMAIGEKVTIRCITITDIDDDMNWYQQKPGEPPKLLFSEGNTLRPGVPSRFSSSGYGSDFAFTIENMLSEDVADYYCLQSDNLPLTFGAGTKLELK
